Measured values as given in paper PMC12990809.

How the values were obtained:
Assay in all cases: pulldown
ESRP1 (Homo sapiens) = biological target: T1, ESRP1 (Homo sapiens) (UniProt Q6NXG1); details: 20 nM protein, 1.5 uM RNA pool; 20 mM HEPES pH 7.8, 70 mM KCl, 10 mM NaCl, 10% glycerol, 2 mM DTT, 0.1 ug/uL BSA; 30 min, 4 C
T1 sequence: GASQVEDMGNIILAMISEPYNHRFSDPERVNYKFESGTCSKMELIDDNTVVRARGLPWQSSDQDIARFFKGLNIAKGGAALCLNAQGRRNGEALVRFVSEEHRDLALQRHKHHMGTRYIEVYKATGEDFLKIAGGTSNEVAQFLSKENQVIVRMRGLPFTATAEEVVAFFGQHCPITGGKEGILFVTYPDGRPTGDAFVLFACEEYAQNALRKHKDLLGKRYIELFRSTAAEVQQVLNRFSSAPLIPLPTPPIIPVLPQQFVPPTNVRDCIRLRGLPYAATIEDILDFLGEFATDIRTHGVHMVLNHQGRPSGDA

[1] = biological target: T2, rsp-1 (Caenorhabditis elegans) (UniProt Q23121); details: 20 nM protein, 1.5 uM RNA pool; 20 mM HEPES pH 7.8, 70 mM KCl, 10 mM NaCl, 10% glycerol, 2 mM DTT, 0.1 ug/uL BSA; 30 min, 4 C
T2 sequence: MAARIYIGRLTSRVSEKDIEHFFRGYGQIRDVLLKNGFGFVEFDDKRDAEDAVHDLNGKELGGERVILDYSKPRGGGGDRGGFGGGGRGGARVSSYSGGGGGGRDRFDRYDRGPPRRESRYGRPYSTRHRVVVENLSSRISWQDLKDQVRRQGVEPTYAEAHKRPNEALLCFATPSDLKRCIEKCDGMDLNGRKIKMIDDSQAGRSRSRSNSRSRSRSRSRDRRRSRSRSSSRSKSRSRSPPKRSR

[2] = biological target: T3, PK21151.1 (Cannabis sativa) (UniProt A0A7J6F7E6); details: 20 nM protein, 1.5 uM RNA pool; 20 mM HEPES pH 7.8, 70 mM KCl, 10 mM NaCl, 10% glycerol, 2 mM DTT, 0.1 ug/uL BSA; 30 min, 4 C
T3 sequence: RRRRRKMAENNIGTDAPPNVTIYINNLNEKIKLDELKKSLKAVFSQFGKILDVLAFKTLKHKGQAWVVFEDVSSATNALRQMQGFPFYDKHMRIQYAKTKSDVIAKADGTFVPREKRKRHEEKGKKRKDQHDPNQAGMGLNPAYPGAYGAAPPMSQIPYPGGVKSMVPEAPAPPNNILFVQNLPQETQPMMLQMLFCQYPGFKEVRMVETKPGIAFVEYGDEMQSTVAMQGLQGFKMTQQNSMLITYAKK

LIN28A (Homo sapiens) = biological target: T4, LIN28A (Homo sapiens) (UniProt Q9H9Z2); details: 20 nM protein, 1.5 uM RNA pool; 20 mM HEPES pH 7.8, 70 mM KCl, 10 mM NaCl, 10% glycerol, 2 mM DTT, 0.1 ug/uL BSA; 30 min, 4 C (protocol of this paper; not …); cited from earlier work
T4 sequence: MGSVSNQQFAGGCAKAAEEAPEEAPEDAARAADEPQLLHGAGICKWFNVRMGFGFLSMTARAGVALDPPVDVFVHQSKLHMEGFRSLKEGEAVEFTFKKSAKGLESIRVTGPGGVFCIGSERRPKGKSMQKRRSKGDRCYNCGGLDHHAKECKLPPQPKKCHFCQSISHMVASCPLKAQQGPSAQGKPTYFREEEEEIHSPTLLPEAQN

[3] = biological target: T5, RBFOX2 I153V (Homo sapiens) (UniProt O43251); details: 20 nM protein, 1.5 uM RNA pool; 20 mM HEPES pH 7.8, 70 mM KCl, 10 mM NaCl, 10% glycerol, 2 mM DTT, 0.1 ug/uL BSA; 30 min, 4 C
T5 sequence: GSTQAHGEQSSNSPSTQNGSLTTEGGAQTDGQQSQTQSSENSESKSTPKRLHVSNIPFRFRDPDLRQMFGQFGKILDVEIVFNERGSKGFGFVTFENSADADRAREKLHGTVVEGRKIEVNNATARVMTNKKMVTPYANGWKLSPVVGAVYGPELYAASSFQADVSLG

[4] = biological target: T6, PFE0865c (Plasmodium falciparum) (UniProt Q8I3T5); details: 20 nM protein, 1.5 uM RNA pool; 20 mM HEPES pH 7.8, 70 mM KCl, 10 mM NaCl, 10% glycerol, 2 mM DTT, 0.1 ug/uL BSA; 30 min, 4 C
T6 sequence: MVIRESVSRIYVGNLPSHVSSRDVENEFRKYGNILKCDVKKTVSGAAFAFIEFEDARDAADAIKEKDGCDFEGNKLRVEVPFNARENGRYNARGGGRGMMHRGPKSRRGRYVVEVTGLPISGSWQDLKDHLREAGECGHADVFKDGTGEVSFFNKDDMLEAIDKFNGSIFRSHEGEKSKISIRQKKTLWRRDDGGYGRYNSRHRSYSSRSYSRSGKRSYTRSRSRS

[5] = biological target: T7, T07F10.3 (Caenorhabditis elegans) (UniProt Q22318); details: 20 nM protein, 1.5 uM RNA pool; 20 mM HEPES pH 7.8, 70 mM KCl, 10 mM NaCl, 10% glycerol, 2 mM DTT, 0.1 ug/uL BSA; 30 min, 4 C
T7 sequence: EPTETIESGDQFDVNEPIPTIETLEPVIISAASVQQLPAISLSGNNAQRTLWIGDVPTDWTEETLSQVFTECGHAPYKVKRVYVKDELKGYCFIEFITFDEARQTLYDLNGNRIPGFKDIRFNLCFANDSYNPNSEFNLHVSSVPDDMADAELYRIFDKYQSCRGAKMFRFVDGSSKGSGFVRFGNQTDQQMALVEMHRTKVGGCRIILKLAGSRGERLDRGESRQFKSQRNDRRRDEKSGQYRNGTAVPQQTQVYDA

FUBP1 (Homo sapiens) = biological target: T8, FUBP1 (Homo sapiens) (UniProt A0ACI8RIE7); details: 20 nM protein, 1.5 uM RNA pool; 20 mM HEPES pH 7.8, 70 mM KCl, 10 mM NaCl, 10% glycerol, 2 mM DTT, 0.1 ug/uL BSA; 30 min, 4 C
T8 sequence: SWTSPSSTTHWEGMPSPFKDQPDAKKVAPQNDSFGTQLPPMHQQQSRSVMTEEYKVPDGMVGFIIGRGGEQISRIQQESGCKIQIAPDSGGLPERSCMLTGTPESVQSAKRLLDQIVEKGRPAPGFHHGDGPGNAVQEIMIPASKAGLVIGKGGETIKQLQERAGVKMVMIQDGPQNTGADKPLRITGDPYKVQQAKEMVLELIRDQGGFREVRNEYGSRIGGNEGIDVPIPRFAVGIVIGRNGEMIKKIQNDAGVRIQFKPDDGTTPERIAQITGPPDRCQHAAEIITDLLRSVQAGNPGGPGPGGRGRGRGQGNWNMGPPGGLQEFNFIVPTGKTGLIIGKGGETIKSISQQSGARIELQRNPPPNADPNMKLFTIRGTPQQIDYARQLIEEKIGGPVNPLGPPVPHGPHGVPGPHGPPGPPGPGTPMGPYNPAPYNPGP

Sequence: GGAUGGGG [RNAcompete motif RNCMPT00808]
- binding signal (z-score (mean of top ten 7-mers)) (ESRP1 (Homo sapiens)): 6.61

Sequence: GGAGGAG [RNAcompete motif RNCMPT00801]
- binding signal (z-score (mean of top ten 7-mers)) [1]: 9.02

Sequence: UUGCACA [RNAcompete motif RNCMPT00830]
- binding signal (z-score (mean of top ten 7-mers)) [2]: 12.4

Sequence: CGGAGG [RNAcompete motif RNCMPT00162]
- binding signal (z-score (mean of top ten 7-mers)) (LIN28A (Homo sapiens)): 6.24

Sequence: UGCAUG [RNAcompete motif RNCMPT00818]
- binding signal (z-score (mean of top ten 7-mers)) [3]: 26.3

Sequence: GAUGAAC [RNAcompete motif RNCMPT00800]
- binding signal (z-score (mean of top ten 7-mers)) [4]: 6.53

Sequence: AUAAUAA [RNAcompete motif RNCMPT00821]
- binding signal (z-score (mean of top ten 7-mers)) [5]: 8.08

Sequence: AUGUAU [RNAcompete motif RNCMPT00822]
- binding signal (z-score (mean of top ten 7-mers)) (FUBP1 (Homo sapiens)): 7.78
